Data set [1] is described as follows: SEC; each antibody alone at 100 mg/mL (second study also 50 mg/mL) in 20 mM acetate, 9% sucrose, 0.01% polysorbate 80, pH 5.2, stored at 40°C (also 25°C) up to 12 weeks; diluted 100-fold before SE-HPLC; TSKgel G3000SWxl, 0.2 M sodium phosphate pH 6.8, column at 30°C; dimer and multimer defined by ….
The target of the next data set is PGT121. Description: SEC; each antibody alone, stored at 30°C; data not shown. For orientation: In gel filtration, larger molecules generally elute earlier.
The target in data set [2] is 3BNC117. The description is as above.
The target of data set [3] is 3BNC117. As to the kind of experiment: SEC; each antibody alone at 100 mg/mL (second study also 50 mg/mL) in 20 mM acetate, 9% sucrose, 0.01% polysorbate 80, pH 5.2, stored at 40°C (also 25°C) up to 12 weeks; diluted 100-fold before SE-HPLC; TSKgel G3000SWxl, 0.2 M sodium phosphate pH 6.8, column at 30°C; dimer and multimer defined by elution time relative to the monomer.

In general, stoichiometry N refers to a count of units in the complex or per binding partner.

Consider PGT121, for which the “increase of the multimers' share of the SE-HPLC area against day 0 (12 weeks, 40°C)” value in data set [1] was “∼3% increase compared to day 0 at 40 °C”.

With PGT121 (antibody), the stoichiometry N with PGT121 was determined as 2.

With 3BNC117, in data set [1], the “increase of the dimer's share of the SE-HPLC area against day 0 (12 weeks, 40°C)” value was “∼6% increase compared to day 0 at 40 °C”. On to 3BNC117 (antibody), for which the stoichiometry N with 3BNC117 [2] and with 3BNC117 [3] was 2 each time. The rate of dimer formation at 40°C relative to PGT121 with 3BNC117 [3] is 3.5 fold.

These data come from PMC6269598.
